7 molecules from US20040014026A1 (YISSUM RESEARCH DEVELOPMENT COMPANY OF THE HEBREW …, published 2004) can be followed below.

The chains are these.
B1: IKK-phosphorylated IκBα (pIκBα) (other, UniProt P25963 1-317, looked up)
chain: MFQAAERPQEWAMEGPRDGLKKERLLDDRHDSGLDSMKDEEYEQMVKELQEIRLEPQEVPRGSEPWKQQLTEDGDSFLHLAIIHEEKALTMEVIRQVKGDLAFLNFQNNLQQTPLHLAVITNQPEIAEALLGAGCDPELRDFRGNTPLHLACEQGCLASVGVLTQSCTTPHLHSILKATNYNGHTCLHLASIHGYLGIVELLVSLGADVNAQEPCNGRTALHLAVDLQNPDLVSLLLKCGADVNRVTYQGYSPYQLTWGRPSTRIQQQLGQLTLENLQMLPESEDEESYDTESEFTEFTEDELPYDDCVFGGQRLTL
modifications: phosphorylated by IKK2 (sites not given); 35S-labelled in the in vitro assays
notes: in the other assays it was phosphorylated in vitro by IKK2
B2: non-phosphorylated IκBα (other, UniProt P25963 1-317, looked up)
chain: B1 chain
B3: WDK2 (Flag-WD with Lys 326 mutated to Ala) (other, UniProt Q9Y297 229-605, looked up, not shown: small tags and cut ends)
chain: IERMVRTDSLWRGLAERRGWGQYLFKNKPPDGNAPPNSFYRALYPKIIQDIETIESNWRCGRHSLQRIHCRSETSKGVYCLQYDDQKIVSGLRDNTIAIWDKNTLECKRILTGHTGSVLCLQYDERVIITGSSDSTVRVWDVNTGEMLNTLIHHCEAVLHLRFNNGMMVTCSKDRSIAVWDMASPTDITLRRVLVGHRAAVNVVDFDDKYIVSASGDRTIKVWNTSTCEFVRTLNGHKRGIACLQYRDRLVVSGSSDNTIRLWDIECGACLRVLEGHEELVRCIRFDNKRIVSGAYDGKIKVWDLVAALDPRAPAGTLCLRTLVEHSGRVFRLQFDEFQIVSSSHDDTILIWDFLNDPAAQAEPPRSPSRTYTYISR
notes: domain: WD fragment (F-Box deleted E3RS); also called Flag-WD mutant WDK2; mutant WD
B4: Flag-F-Box (F-Box fragment of E3RS) (other, UniProt Q9Y297 1-228, looked up, not shown: small tags and cut ends)
chain: MDPAEAVLQEKALKFMCSMPRSLWLGCSSLADSMPSLRCLYNPGTGALTAFQNSSEREDCNNGEPPRKIIPEKNSLRQTYNSCARLCLNQETVCLASTAMKTENCVAKTKLANGTSSMIVPKQRKLSASYEKEKELCVKYFEQWSESDQVEFVEHLISQMCHYQHGHINSYLKPMLQRDFITALPARGLDHIAENILSYLDAKSLCAAELVCKEWYRVTSDGMLWKKL
notes: domain: F-Box fragment
B5: Flag-tagged E3RS/βTrCP (Flag-E3RS) (other, UniProt Q9Y297 1-605, looked up, not shown: small tags and cut ends)
chain: MDPAEAVLQEKALKFMCSMPRSLWLGCSSLADSMPSLRCLYNPGTGALTAFQNSSEREDCNNGEPPRKIIPEKNSLRQTYNSCARLCLNQETVCLASTAMKTENCVAKTKLANGTSSMIVPKQRKLSASYEKEKELCVKYFEQWSESDQVEFVEHLISQMCHYQHGHINSYLKPMLQRDFITALPARGLDHIAENILSYLDAKSLCAAELVCKEWYRVTSDGMLWKKLIERMVRTDSLWRGLAERRGWGQYLFKNKPPDGNAPPNSFYRALYPKIIQDIETIESNWRCGRHSLQRIHCRSETSKGVYCLQYDDQKIVSGLRDNTIKIWDKNTLECKRILTGHTGSVLCLQYDERVIITGSSDSTVRVWDVNTGEMLNTLIHHCEAVLHLRFNNGMMVTCSKDRSIAVWDMASPTDITLRRVLVGHRAAVNVVDFDDKYIVSASGDRTIKVWNTSTCEFVRTLNGHKRGIACLQYRDRLVVSGSSDNTIRLWDIECGACLRVLEGHEELVRCIRFDNKRIVSGAYDGKIKVWDLVAALDPRAPAGTLCLRTLVEHSGRVFRLQFDEFQIVSSSHDDTILIWDFLNDPAAQAEPPRSPSRTYTYISR
notes: F-box protein, receptor subunit of the IκB-E3; Immunopurified material may carry endogenous Skp1/Cul1; also called β-TrCP/E3RS; WT E3RS
B6: Flag-HOS/β-TrCP2 (other, human, UniProt Q9UKB1 1-542, looked up, not shown: small tags and cut ends)
chain: MEPDSVIEDKTIELMCSVPRSLWLGCANLVESMCALSCLQSMPSVRCLQISNGTSSVIVSRKRPSEGNYQKEKDLCIKYFDQWSESDQVEFVEHLISRMCHYQHGHINSYLKPMLQRDFITALPEQGLDHIAENILSYLDARSLCAAELVCKEWQRVISEGMLWKKLIERMVRTDPLWKGLSERRGWDQYLFKNRPTDGPPNSFYRSLYPKIIQDIETIESNWRCGRHNLQRIQCRSENSKGVYCLQYDDEKIISGLRDNSIKIWDKTSLECLKVLTGHTGSVLCLQYDERVIVTGSSDSTVRVWDVNTGEVLNTLIHHNEAVLHLRFSNGLMVTCSKDRSIAVWDMASATDITLRRVLVGHRAAVNVVDFDDKYIVSASGDRTIKVWSTSTCEFVRTLNGHKRGIACLQYRDRLVVSGSSDNTIRLWDIECGACLRVLEGHEELVRCIRFDNKRIVSGAYDGKIKVWDLQAALDPRAPASTLCLRTLVEHSGRVFRLQFDEFQIISSSHDDTILIWDFLNVPPSAQNETRSPSRTYTYISR
notes: also called β-TrCP2/HOS

In experiment [1] the target is IKK-phosphorylated IκBα (pIκBα) (UniProt P25963). Nature of the experiment: pIκBα binding after heat shock, data not shown.
Experiment [2] deals with T1, hnRNP-U (endogenous protein of 293/293T cells) (UniProt Q00839-2 2-806, limits assumed).
T1 construct: also called p120; 120 kD protein
The experiment is described as follows: pIκBα incubated with anti-hnRNP-U immunobeads carrying the hnRNP-U/E3RS complex, Western blot.
Procedure: (§1) IκBα (FIG. 4D, lanes 1,3,4) and IKK phosphorylated IκBα (pIκBα; FIG. 4D, lanes 2,5-7) were incubated with the immunobeads, after which, both the immunobeads (slurry (S); FIG. 4D, lanes 1-3,5) and the post-slurry fractions (PS; FIG. 4D, lanes 4,6) were analyzed by Western blot directly, or after immunoprecipitation of the post-slurry fraction (same as in FIG. 4D, lane 6) with anti-Flag beads (FIG. 4D, lane 7).

In another experiment the target is T2, HA-hnRNP-U (UniProt Q00839-2 1-806, limits assumed).
T2 construct: not shown: HA tag
The experiment is described as follows: anti-p65 immunoprecipitation from 293T cells with MEKK and IKK2, anti-HA Western blot.

Experiment [3] concerns the target B3. The experiment is described as follows: pull-down of 35S-labelled pIκBα on anti-Flag immunobeads, phosphorimaging.
Source text: The beads were washed extensively and associated proteins analyzed by SDS-PAGE and phosphorimaging.
Experiment [4] deals with T1, hnRNP-U (endogenous protein of 293/293T …). The experiment is described as follows: IκBα incubated with anti-hnRNP-U immunobeads carrying the hnRNP-U/E3RS complex, Western blot.
Procedure: as §1
For experiment [5] the target is unchanged. The experiment is described as follows: anti-Flag immunopurification, Flag-peptide elution, Coomassie.
Procedure: To detect specifically dissociated proteins, immunobeads were incubated with Flag peptide (FIG. 3B, lanes 1,4,7), pp10 (FIG. 3B, lanes 2,5,8), p10S/E (FIG. 3B, lanes 3,6,9) and the post-slurry fractions were separated by SDS-PAGE.
Experiment [6] shares this target. The experiment is described as follows: anti-Flag immunoprecipitation from 293T cells, Coomassie and Western blot.
Procedure: (§2) The cells were lysed and the extracts immunoprecipitated, using agarose-conjugated anti-Flag (lanes 1-5) and anti-HA (lane 6) antibodies. Immunoprecipitated proteins were analyzed by SDS-PAGE and Coomassie Brilliant Blue staining.
For experiment [7] the target is unchanged. Nature of the experiment: anti-Flag immunopurification from 293T cells, SDS-PAGE Coomassie.
Procedure: as §2
For experiment [8] the target is unchanged. The experiment is described as follows: anti-Flag immunoprecipitation from 293T cells, Western blot with monoclonal anti-hnRNP-U (also Coomassie, FIG. 2A lane 3).
Procedure: Cells were harvested 24-48 h after transfection, and extracted by suspension in 50 mM Tris pH 7.6, 1 mM dithiothreitol (DTT), 0.1% Nonidet P-40 (NP-40), 1 mM phenyl methyl sulfonyl fluoride, 1% Aprotinin and vortexing for 20 sec. Cell extracts were collected following centrifugation at 20,000 g for 30 min at 4° C. Cell extract (500 μg protein) was adjusted to 150 mM NaCl prior to immunoprecipitation. Flag-tagged proteins were immunoprecipitated with 2 μl of the anti-Flag immunobeads. Immunoprecipitation was for 2 h at 4° C. and the immunobeads were washed 4× in 300 mM NaCl, 1 mM DTT, 0.1% NP-40 and 50 mM Tris, pH 7.6. Flag-tagged proteins were eluted from the Flag immunobeads with 1 mg/ml of Flag peptide in 50 mM Tris, pH 7.6 for 30 min at 25° C. hnRNP-U was immunoprecipitated using 0.2-0.5 μl of the 3G6 antibody and 2-5%1 of Protein G immunobeads.
as §2

In turn, “E3K2 (Flag-E3RS with the K2 residue Lys 326 mutated to Ala) (from UniProt Q9Y297 1-605)” yielded a loss of pIκBα binding capacity after heat shock in [1] of 50 to 60%.
Turning to B1, the binding result (in [2]; with HA-hnRNP-U; in experiment [3]) was “no binding” each time.
Turning to B2, the binding result in [4] is listed as “no binding”.
B3: the binding result in experiment [5] is “no binding”.
As for B4, the binding result in experiment [6] is listed as “no binding”.
For the molecule B5, in [7], the “Coomassie staining ratio p120/E3RS” value was 1.5 ratio p120:E3RS.
Take B6: the binding result in experiment [8] was “no binding”.
